The text below walks through data of PMC8115694, “Distinct axial and lateral interactions within homologous filaments dictate the signaling specificity and order of the AIM2-ASC inflammasome” (Nature Communications, 2021).

Data set [1] concerns the molecule itself. The data set can be described thus: cryo-EM structure; helical reconstruction of the untagged AIM2 (1-117) filament; 2.75 uM protein cleaved for 30 min with 6 uM TEVp.
Data set [2] concerns the molecule itself. The data set can be described thus: confocal fluorescence microscopy of fluor-labelled recombinant filaments; two differentially labelled (Alexa488, Dylight550) MBP-tagged PYD populations mixed at 1:1 ratio (1 uM each), polymerisation triggered by cleaving MBP with TEVp.

B1: AIM2^PYD filament construct with ~20 a.a. of the unstructured linker (residues 1-117), untagged (domain or fragment, human, UniProt O14862 1-117, looked up)
chain: MESKYKEILLLTGLDNITDEELDRFKFFLSDEFNIATGKLHTANRIQVATLMIQNAGAVSAVMKTIRIFQKLNYMLLAKRLQEEKEKVDKQYKSVTKPKPLSQAEMSPAASAAIRND
notes: AIM2 (absent in melanoma 2), human, residues 1-117: PYD plus ~20 a.a. of the unstructured linker; Helical filament; 2.75 uM protein cleaved for 30 min with 6 uM TEVp before freezing; also called AIM2^IRND; source: MBP cleaved with TEVp; not shown: MBP, N-terminal, cleaved
As to B1, the binding result in data set [1] was “binds”.

B2: AIM2^PYD (residues 1-94) S94C, fluorophore-labelled (domain or fragment, human, UniProt O14862 1-94, looked up)
chain: MESKYKEILLLTGLDNITDEELDRFKFFLSDEFNIATGKLHTANRIQVATLMIQNAGAVSAVMKTIRIFQKLNYMLLAKRLQEEKEKVDKQYKC
modifications: fluorophore label (Alexa488 or Dylight550; FRET donor or acceptor); S94C for fluorophore labeling
notes: AIM2, human, pyrin domain, residues 1-94; Polymerisation is triggered by cleaving MBP with TEVp; the protein stands as nascent monomer or as preassembled filament; also called MBP-AIM2^PYD; source: MBP cleaved with TEVp in the assay; not shown: MBP, N-terminal, cleaved
On to B2, for which the binding result in data set [2] is on record as “binds”.
